Measured values taken from US20120316071A1 (published 2012).

B1: Fab VH1-46_IGHD6-6*01_IGHJ1*01 S102A/S103P/S104F/H111F (APFF) & L6_IGKJ1*01 S28W (Fab, V domains shown)
VH: QVQLVQSGAEVKKPGASVKVSCKASGYTFTSYYMHWVRQAPGQGLEWMGIINPSGGSTSYAQKFQGRVTMTRDTSTSTVYMELSSLRSEDTAVYYCAREEYAPFSAEYFQFWGQGTLVTVSS
VL: EIVLTQSPATLSLSPGERATLSCRASQWVSSYLAWYQQKPGQAPRLLIYDASNRATGIPARFSGSGSGTDFTLTISSLEPEDFAVYYCQQRSNWPPWTFGQGTKVEIKR
notes: Fab; VH cloned into Plasmid A (CH1, His6 and Flag tags) and VL into Plasmid C (kappa CL); also called APFF / S28W
B2: Fab VH1-46_IGHD6-6*01_IGHJ1*01 S102A/S103P/S104F/H111F (APFF) & L6_IGKJ1*01 S30C (Fab, V domains shown)
VH: QVQLVQSGAEVKKPGASVKVSCKASGYTFTSYYMHWVRQAPGQGLEWMGIINPSGGSTSYAQKFQGRVTMTRDTSTSTVYMELSSLRSEDTAVYYCAREEYAPFSAEYFQFWGQGTLVTVSS
VL: EIVLTQSPATLSLSPGERATLSCRASQSVCSYLAWYQQKPGQAPRLLIYDASNRATGIPARFSGSGSGTDFTLTISSLEPEDFAVYYCQQRSNWPPWTFGQGTKVEIKR
notes: Fab; VH cloned into Plasmid A (CH1, His6 and Flag tags) and VL into Plasmid C (kappa CL); also called APFF / S30C
B3: Fab VH1-46_IGHD6-6*01_IGHJ1*01 S102A/S103P/S104F/H111F (APFF) & L6_IGKJ1*01 S30D (Fab, V domains shown)
VH: QVQLVQSGAEVKKPGASVKVSCKASGYTFTSYYMHWVRQAPGQGLEWMGIINPSGGSTSYAQKFQGRVTMTRDTSTSTVYMELSSLRSEDTAVYYCAREEYAPFSAEYFQFWGQGTLVTVSS
VL: EIVLTQSPATLSLSPGERATLSCRASQSVDSYLAWYQQKPGQAPRLLIYDASNRATGIPARFSGSGSGTDFTLTISSLEPEDFAVYYCQQRSNWPPWTFGQGTKVEIKR
notes: Fab; VH cloned into Plasmid A (CH1, His6 and Flag tags) and VL into Plasmid C (kappa CL); also called APFF / S30D
B4: Fab VH1-46_IGHD6-6*01_IGHJ1*01 S102A/S103P/S104F/H111F (APFF) & L6_IGKJ1*01 S30L (Fab, V domains shown)
VH: QVQLVQSGAEVKKPGASVKVSCKASGYTFTSYYMHWVRQAPGQGLEWMGIINPSGGSTSYAQKFQGRVTMTRDTSTSTVYMELSSLRSEDTAVYYCAREEYAPFSAEYFQFWGQGTLVTVSS
VL: EIVLTQSPATLSLSPGERATLSCRASQSVLSYLAWYQQKPGQAPRLLIYDASNRATGIPARFSGSGSGTDFTLTISSLEPEDFAVYYCQQRSNWPPWTFGQGTKVEIKR
notes: Fab; VH cloned into Plasmid A (CH1, His6 and Flag tags) and VL into Plasmid C (kappa CL); also called APFF / S30L
B5: Fab VH1-46_IGHD6-6*01_IGHJ1*01 S102A/S103P/S104F/H111F (APFF) & L6_IGKJ1*01 (Fab, V domains shown)
VH: QVQLVQSGAEVKKPGASVKVSCKASGYTFTSYYMHWVRQAPGQGLEWMGIINPSGGSTSYAQKFQGRVTMTRDTSTSTVYMELSSLRSEDTAVYYCAREEYAPFSAEYFQFWGQGTLVTVSS
VL: not shown
notes: Tested as Fab made in E. coli: VH in Plasmid A (CH1, His6 and Flag tags), VL in Plasmid C (kappa CL); also called APFF / parent; H:APFF & L:wt
B6: Fab VH5-51_IGHD5-18*01>3_IGHJ4*01 G100K/G104T (H:KT) & V3-4_IGLJ1*01 (Fab, V domains shown)
VH: EVQLVQSGAEVKKPGESLKISCKGSGYSFTSYWIGWVRQMPGKGLEWMGIIYPGDSDTRYSPSFQGQVTISADKSISTAYLQWSSLKASDTAMYYCARRKYSYTYDYFDYWGQGTLVTVSS
VL: QTVVTQEPSFSVSPGGTVTLTCGLSSGSVSTSYYPSWYQQTPGQAPRTLIYSTNTRSSGVPDRFSGSILGNKAALTITGAQADDESDYYCVLYMGSGISYVFGTGTKVTVL
notes: Tested as purified Fab made in E. coli; also called H:KT & L:wt; KT double mutant

Key:
[1] = biological target: T1, rHuman HGF R/c-MET/Fc Chimera, CF (R&D Systems Cat#358-MT/CF) (human, UniProt P08581 25-932); assay: ECL multispot (MSD), antigen spotted, Fab in solution;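 note: purified Fab incubated 1 h at 20 °C on antigen-spotted wells, bound Fab detected via TAG detection antibody, ECL compared with each well's blank, ratio of 4 or above scored as hit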
T1 construct: Bought recombinant Fc chimera; also called HGF R/Fc; hepatocyte growth factor receptor; Fc part of the bought chimera not given

[2] = biological target: T2, rHuman EGF R/Fc Chimera, CF (R&D Systems Cat#344-ER) (human, UniProt P00533 25-645); assay: as above
T2 construct: Bought recombinant Fc chimera; also called epidermal growth factor receptor; Fc part of the bought chimera not given

[3] = biological target: T3, rHuman Notch-1/Fc Chimera, CF (R&D Systems Cat#3647-TK) (human, UniProt P46531 19-526); assay: as above
T3 construct: Bought recombinant Fc chimera; Fc part of the bought chimera not given

[4] = biological target: T4, rHuman Erythropoietin R/Fc Chimera, CF (R&D Systems Cat#963-ER) (human, UniProt P19235 25-250); assay: as above
T4 construct: Bought recombinant Fc chimera; also called EPO R; EPO R/Fc; Fc part of the bought chimera not given
T4 sequence (looked up): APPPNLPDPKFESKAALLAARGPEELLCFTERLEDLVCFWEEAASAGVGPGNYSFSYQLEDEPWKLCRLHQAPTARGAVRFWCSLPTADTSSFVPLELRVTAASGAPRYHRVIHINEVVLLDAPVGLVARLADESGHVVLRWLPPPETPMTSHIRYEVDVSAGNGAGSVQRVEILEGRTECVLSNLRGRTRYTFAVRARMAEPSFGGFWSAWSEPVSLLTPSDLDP

[5] = biological target: T5, rHuman CD44/Fc Chimera, CF (R&D Systems Cat#3660-CD) (human, UniProt P16070 21-220); assay: as above
T5 construct: Bought recombinant Fc chimera; Fc part of the bought chimera not given

[6] = biological target: T6, rHuman IGF-1 sR, (IGF-1 sR), CF (R&D Systems Cat#391-GR) (human, UniProt P08069 31-932); assay: as above
T6 construct: Bought recombinant soluble receptor; The column head prints only 'IGF-1'; also called insulin-like growth factor-1 soluble receptor

[7] = biological target: T7, rHuman ErbB2/Fc Chimera, CF (R&D Systems Cat#1129-ER) (human, UniProt P04626 23-652); assay: as above
T7 construct: Bought recombinant Fc chimera; also called human epidermal growth factor 2 receptor; Fc part of the bought chimera not given

[8] = biological target: T8, rHuman P-Cadherin/Fc Chimera, CF (R&D Systems Cat#861-PC) (human, UniProt P22223 108-654); assay: as above
T8 construct: Bought recombinant Fc chimera; Fc part of the bought chimera not given

[9] = biological target: T9, rHuman ErbB2/Fc Chimera, CF (R&D Systems Cat#1129-ER) (human, UniProt P04626 23-652); assay: ECL multispot (MSD) binding assay, antigen spotted on plate;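 note: purified Fab incubated 1 h at 20 °C on antigen spots, detected with TAG-labelled antibody, electrochemiluminescence compared with each well's blank, signal-to-blank ratio ≥4 counted as hit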
T9 construct: Bought recombinant protein; also called human epidermal growth factor 2 receptor

[10] = biological target: T10, Recombinant Human DLL4 (R&D Systems Cat#1506-D4/CF) (human, UniProt Q9NR61 27-524); assay: as above
T10 construct: Bought recombinant protein; also called delta-like protein 4; rHuman DLL4

[11] = biological target: T11, rHuman HGF R/c-MET/Fc Chimera, CF (R&D Systems Cat#358-MT/CF) (human, UniProt P08581 25-932); assay: as above
T11 construct: Bought recombinant protein; also called HGF R/Fc; hepatocyte growth factor receptor

[12] = biological target: T12, rHuman P-Cadherin/Fc Chimera, CF (R&D Systems Cat#861-PC) (human, UniProt P22223 108-654); assay: as above
T12 construct: Bought recombinant protein

[13] = biological target: T13, rHuman EGF R/Fc Chimera, CF (R&D Systems Cat#344-ER) (human, UniProt P00533 25-645); assay: as above
T13 construct: Bought recombinant protein; also called epidermal growth factor receptor

[14] = biological target: T14, rHuman IGF-1 sR, (IGF-1 sR), CF (R&D Systems Cat#391-GR) (human, UniProt P08069 31-932); assay: as above
T14 construct: Bought recombinant soluble receptor; also called insulin-like growth factor-1 soluble receptor

[15] = biological target: T15, Recombinant Human DLL4 (R&D Systems Cat#1506-D4/CF) (human, UniProt Q9NR61 27-524); assay: ECL (MSD) multispot binding assay, immobilised recombinant human DLL4, Fab at 0.04 uM
T15 construct: also called delta-like protein 4; Delta-like 4

| Binder | ECL signal [1] | ECL signal [2] | ECL signal [3] | ECL signal [4] | ECL signal [5] | ECL signal [6] | ECL signal [7] | ECL signal [8] | ECL signal [9] | ECL signal [10] | ECL signal [11] | ECL signal [12] | ECL signal [13] | ECL signal [14] | ECL Signal/Noise [15] |
| --- | --- | --- | --- | --- | --- | --- | --- | --- | --- | --- | --- | --- | --- | --- | --- |
| B1 | 414 | 283 | 349 | 489 | 404 | 489 | 316 | 385 | – | – | – | – | – | – | – |
| B2 | 1230 | 1190 | 1470 | 1790 | 1080 | 1030 | 1010 | 1690 | – | – | – | – | – | – | – |
| B3 | 312 | 325 | 415 | 496 | 434 | 357 | 284 | 543 | – | – | – | – | – | – | – |
| B4 | 315 | 406 | 389 | 540 | 295 | 332 | 270 | 351 | – | – | – | – | – | – | – |
| B5 | – | – | – | – | – | – | – | – | 312 | 172000 | 347 | 450 | 370 | 433 | – |
| B6 | – | – | – | – | – | – | – | – | – | – | – | – | – | – | 49.2 |
